Source: US20080247955A1

Molecular target: Triggering receptor expressed on myeloid cell-1 (TREM-1), human (human) (UniProt Q9NP99)
Assay: cell-based or functional assay

Sequence of UniProt Q9NP99 (Q9NP99 21-234): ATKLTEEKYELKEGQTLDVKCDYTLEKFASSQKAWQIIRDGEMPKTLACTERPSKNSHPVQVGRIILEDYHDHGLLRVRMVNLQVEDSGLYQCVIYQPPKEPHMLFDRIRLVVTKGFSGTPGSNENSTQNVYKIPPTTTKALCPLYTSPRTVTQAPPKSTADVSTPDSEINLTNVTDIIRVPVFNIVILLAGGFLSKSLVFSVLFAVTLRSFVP

CSF2 (GM-CSF) mRNA induction (microarray, human monocytes): 9.6 fold
INHBA transcript fold change (microarray, human monocytes), confirmed at protein level by ELISA: 96.7 fold
M-CSF transcript fold change (microarray, human monocytes), confirmed at protein level by ELISA: 22 fold
SPP1 transcript fold change (microarray, human monocytes, 2 hours, α-TREM-1 against control antibody): 28 fold
Substance: anti-hTREM-1 antibody (MAB1278, R&D Systems)
